Tests used:
[1] = biological target: T1, human CD40 on the cell surface (CD40 transfected HEK293 cells, Ramos human B cells, other CD40-bearing cells) (human, UniProt P25942 21-277); assay: flow cytometry, Alexa 647 conjugate on CD40 transfected 293 cells
T1 construct: the transfected construct is not described further

[2] = biological target: T2, CD40-Fc protein (Sino-Biological), biotinylated (Homo sapiens (Human), UniProt P25942 21-193, biotinylated in the lab (sites not given) when used for capture); assay: Octet (BLI); G4P-PDL1 held on captured hPDL1-His, then CD40-Fc 100nM
T2 construct: Bought; also called CD40-biotin; not shown: Fc of the purchased CD40-Fc
T2 sequence (P25942 21-193): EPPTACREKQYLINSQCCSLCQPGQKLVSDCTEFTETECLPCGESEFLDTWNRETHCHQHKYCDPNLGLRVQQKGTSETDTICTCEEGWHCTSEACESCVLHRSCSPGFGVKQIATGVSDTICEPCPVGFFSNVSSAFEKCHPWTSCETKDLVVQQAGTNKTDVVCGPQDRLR

T1 sequence (P25942 21-277 limits assumed): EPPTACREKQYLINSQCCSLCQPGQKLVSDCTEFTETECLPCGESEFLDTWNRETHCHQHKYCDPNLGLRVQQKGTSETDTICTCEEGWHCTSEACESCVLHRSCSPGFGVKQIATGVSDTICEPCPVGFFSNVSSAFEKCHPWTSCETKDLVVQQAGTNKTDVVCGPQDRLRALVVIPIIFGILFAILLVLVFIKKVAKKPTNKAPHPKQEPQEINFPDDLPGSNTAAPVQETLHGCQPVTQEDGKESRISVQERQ

binding result [1]: no binding (tested: about 4x10^4 pM)
binding result [2]: no binding (tested: 100 nM CD40-Fc)
B1: anti-PDL1 (MEDI4736) in human IgG4 isotype (antibody, V domains shown)
VH: EVQLVESGGGLVQPGGSLRLSCAASGFTFSRYWMSWVRQAPGKGLEWVANIKQDGSEKYYVDSVKGRFTISRDNAKNSLYLQMNSLRAEDTAVYYCAREGGWFGELAFDYWGQGTLVTVSS
VL: EIVLTQSPGTLSLSPGERATLSCRASQRVSSSYLAWYQQKPGQAPRLLIYDASSRATGIPDRFSGSGSGTDFTLTISRLEPEDFAVYYCQQYGSLPWTFGQGTKVEIKR
notes: Human IgG4 (228P) format of MEDI4736; also called MEDI4736 IgG4; anti-PD-L1 (MED4736)
